B1: Drp1 (dynamin-related protein Drp1), wild type [not stated] / GST-MiD51^133-463, wild type [human] (parent complex)
chain 1: MEALIPVINKLQDVFNTVGADIIQLPQIVVVGTQSSGKSSVLESLVGRDLLPRGTGIVTRRPLILQLVHVSQEDKRKTTGEENGVEAEEWGKFLHTKNKLYTDFDEIRQEIENETERISGNNKGVSPEPIHLKIFSPNVVNLTLVDLPGMTKVPVGDQPKDIELQIRELILRFISNPNSIILAVTAANTDMATSEALKISREVDPDGRRTLAVITKLDLMDAGTDAMDVLMGRVIPVKLGIIGVVNRSQLDINNKKSVTDSIRDEYAFLQKKYPSLANRNGTKYLARTLNRLLMHHIRDCLPELKTRINVLAAQYQSLLNSYGEPVDDKSATLLQLITKFATEYCNTIEGTAKYIETSELCGGARICYIFHETFGRTLESVDPLGGLNTIDILTAIRNATGPRPALFVPEVSFELLVKRQIKRLEEPSLRCVELVHEEMQRIIQHCSNYSTQELLRFPKLHDAIVEVVTCLLRKRLPVTNEMVHNLVAIELAYINTKHPDFADACGLMNNNIEEQRRNRLARELPSAVSRDKVASGGGGVGDGVQEPTTGNWRGMLKTSKAEELLAEEKSKPIPIMPASPQKGHAVNLLDVPVPVARKLSAREQRDCEVIERLIKSYFLIVRKNIQDSVPKAVMHFLVNHVKDTLQSELVGQLYKSSLLDDLLTESEDMAQRRKEAADMLKALQGASQIIAEIRETHLW
chain 2: MSLQEKLLTYYRNRAAIPAGEQARAKQAAVDICAELRSFLRAKLPDMPLRDMYLSGSLYDDLQVVTADHIQLIVPLVLEQNLWSCIPGEDTIMNVPGFFLVRRENPEYFPRGSSYWDRCVVGGYLSPKTVADTFEKVVAGSINWPAIGSLLDYVIRPAPPPEALTLEVQYERDKHLFIDFLPSVTLGDTVLVAKPHRLAQYDNLWRLSLRPAETARLRALDQADSGCRSLCLKILKAICKSTPALGHLTASQLTNVILHLAQEEADWSPDMLADRFLQALRGLISYLEAGVLPSALNPKVNLFAELTPEEIDELGYTLYCSLSEPEVLLQT

Variants of: B1
Test: GST pull-down, SDS-PAGE band quantification; parent: 0.15; read off a plot

chain 1 G350D, chain 1 G401A, chain 1 P402A, chain 1 R403A, chain 1 P404A was tested. Which response did it give?
Its response is roughly 0.017 molar ratio.

How did the response turn out when chain 1 G401A, chain 1 P402A, chain 1 R403A, chain 1 P404A was run?
Its response is roughly 0.064 molar ratio.

chain 1 S579D was tested. Which response did it give?
Its response is roughly 0.19 molar ratio.

With chain 1 A395D, chain 1 G401A, chain 1 P402A, chain 1 R403A, chain 1 P404A as the variant, how does the response read?
The response was roughly 0.012 molar ratio.

How did the response turn out when chain 1 S600D was run?
The response was roughly 0.16 molar ratio.

chain 1 A395D was tested. Which response did it give?
Its response is roughly 0.084 molar ratio.

Which response does the source give for chain 1 G350D here?
Its response is roughly 0.089 molar ratio.

For chain 1 G350D, chain 1 A395D, which response is on record?
The response was roughly 0.01 molar ratio.

Variants of: B1
Test: GST pull-down, SDS-PAGE band quantification; parent: 0.3; read off a plot

How did the response turn out when chain 2 E107R was run?
Its response is roughly 0.42 molar ratio.

For chain 2 R111E, which response is on record?
Its response is roughly 0.082 molar ratio.

How did the response turn out when chain 2 F109A was run?
Its response is roughly 0.055 molar ratio.

Which response does the source give for chain 2 Y108A here?
Its response is roughly 0.058 molar ratio.

For chain 2 R102E, which response is on record?
The response was roughly 0.082 molar ratio.

With chain 2 S285Q as the variant, how does the response read?
Its response is roughly 0.33 molar ratio.
